# Reference: US20260028387A1 (published 2026)
# B1: HLIAEIHTA (SEQ ID NO: 9) (peptide)
# peptide: HLIAEIHTA
# notes: synthetic peptide; source gene PTHLH; also called PTHL-001
# Target: T1, HLA-A*02:01 (peptide-receptive MHC class I molecule of the UV-ligand exchange assay) (human)
# T1 construct: MHC monomer first loaded with a UV-sensitive peptide (not identified) that is cleaved by UV light and exchanged for the test peptide; captured on streptavidin plates
# Assay: UV-ligand exchange, anti-b2m ELISA; peptide exchange yield grade (>=10% = +; >=20% = ++; >=50 = +++; >=75% = ++++)
# Text: Candidate peptides for T cell based therapies according to the present invention were further tested for their MHC binding capacity (affinity). The individual peptide-MHC complexes were produced by UV-ligand exchange, where a UV-sensitive peptide is cleaved upon UV-irradiation, and exchanged with the peptide of interest as analyzed. Only peptide candidates that can effectively bind and stabilize the peptide-receptive MHC molecules prevent dissociation of the MHC complexes. To determine the yield of the exchange reaction, an ELISA was performed based on the detection of the light chain (β2m) of stabilized MHC complexes. The assay was performed as generally described in Rodenko et al. (Rodenko et al., 2006).
# 96 well MAXISorp plates (NUNC) were coated aver night with 2 ug/ml streptavidin in PBS at room temperature, washed 4× and blocked for 1 h at 37° C. in 2% BSA containing blocking buffer. Refolded HLA-A*02:01/MLA-001 monomers served as standards, covering the range of 15-500 ng/ml. Peptide-MHC monomers of the UV-exchange reaction were diluted 100 fold in blocking buffer. Samples were incubated for 1 h at 37° C., washed four times, incubated with 2 ug/ml HRP conjugated anti-02m for 1 h at 37° C., washed again and detected with TMB solution that is stopped with […]. Absorption was measured at 450 nm. Candidate peptides that show a high exchange yield (preferably higher than 50%, most preferred higher than 75%) are generally preferred for a generation and production of antibodies or fragments thereof, and/or T cell receptors or fragments thereof, as they show sufficient avidity to the MHC molecules and prevent dissociation of the MHC complexes.
row,Binder,peptide exchange yield [%]
1,ILASLATSV (synthetic peptide; source gene TUBGCP2) [ILASLATSV (SEQ ID NO: 74)],50 to 75
2,NIIELVHQV (synthetic peptide; source gene SYK) [NIIELVHQV (SEQ ID NO: 85)],≥ 75
3,SLDENSDQQV (synthetic peptide; source gene S100A2) [SLDENSDQQV (SEQ ID NO: 10)],50 to 75
4,ALADGVVSQA (synthetic peptide; source gene GPKOW) [ALADGVVSQA (SEQ ID NO: 83)],50 to 75
5,B1,50 to 75
6,VLVPYEPPQV (synthetic peptide; source gene TP63) [VLVPYEPPQV (SEQ ID NO: 77)],20 to 50
7,SLAESLDQA (synthetic peptide; source gene DIS3) [SLAESLDQA (SEQ ID NO: 84)],50 to 75
8,KVADYIPQL (synthetic peptide; source gene GLS) [KVADYIPQL (SEQ ID NO: 76)],50 to 75
9,SILRHVAEV (synthetic peptide; source gene EIF2S1) [SILRHVAEV (SEQ ID NO: 92)],20 to 50
10,KLIDDVHRL (synthetic peptide; source gene SRPR) [KLIDDVHRL (SEQ ID NO: 91)],≥ 75
11,AVLPHVDQV (synthetic peptide; source gene KIAA0947) [AVLPHVDQV (SEQ ID NO: 81)],50 to 75
12,SIYEYYHAL (synthetic peptide; source gene HIF1A) [SIYEYYHAL (SEQ ID NO: 90)],50 to 75
13,HLLGHLEQA (synthetic peptide; source gene PRDM15) [HLLGHLEQA (SEQ ID NO: 82)],50 to 75
14,VLINTSVTL (synthetic peptide; source gene ZNF292) [VLINTSVTL (SEQ ID NO: 93)],50 to 75
15,GQDVGRYQV (synthetic peptide; source gene SSR4) [GQDVGRYQV (SEQ ID NO: 79)],20 to 50
16,ALLDGGSEAYWRV (synthetic peptide; source gene FAM83A) [ALLDGGSEAYWRV (SEQ ID NO: 8)],50 to 75
17,SLADSLYNL (synthetic peptide; source gene CAMSAP2) [SLADSLYNL (SEQ ID NO: 89)],20 to 50
18,KITEAIQYV (synthetic peptide; source gene RORA) [KITEAIQYV (SEQ ID NO: 73)],50 to 75
19,ALQEALENA (synthetic peptide; source gene NUP155) [ALQEALENA (SEQ ID NO: 80)],20 to 50
20,FLDNGPKTI (synthetic peptide; source gene EIF4G2) [FLDNGPKTI (SEQ ID NO: 87)],50 to 75
21,KVANIIAEV (synthetic peptide; source gene RAP1GDS1) [KVANIIAEV (SEQ ID NO: 78)],20 to 50
